Key:
[1] = target: T1, human CD137 expressed on Jurkat cells (human, UniProt Q07011 24-255); experiment: cell-based or functional assay
[2] = target: T1, human CD137 expressed on Jurkat cells; experiment: cell-based or functional assay; remark: listed apart in the source
[3] = target: T1, human CD137 expressed on Jurkat cells; experiment: cell-based or functional assay; remark: listed apart in the source
[4] = target: T1, human CD137 expressed on Jurkat cells; experiment: cell-based or functional assay; remark: listed apart in the source
[5] = target: human PDL1-Fc chimeric protein (human, UniProt Q9NZQ7 19-238, limits assumed); experiment: SPR T200, antigen-Fc captured, molecule as analyte
Procedure: (§1) Affinity to PDL1 of the different species was determined by SPR measurements using a Biacore T200 device (GE Healthcare). An antibody specific for the Fc region of human IgGs was immobilized on a sensor chip (CM5 sensor chip, GE Healthcare) by amine-coupling. For all formats, with the exception of the Fc containing Morrison formats, PDL1-Fc chimeric protein from different species were captured by the immobilized antibody. Three-fold serial dilutions of the molecules specific for PDL1 (0.12-90 nM) were injected into the flow cells for three minutes and dissociation was monitored for 10 minutes. After each injection cycle, surfaces were regenerated with one injection of a 3 M MgCl₂ solution. The apparent dissociation (kd) and association (kₐ) rate constants and the apparent dissociation equilibrium constant (KD) were calculated using one-to-one Langmuir binding model. Affinity to CD137 of the different species was determined using the identical setup as for PDL1 with the exception that CD137-Fc chimeric proteins from different species were captured by the immobilized antibody.

[6] = target: T2, Fc tagged human CD137 (R&D Systems, cat. 838-4B-100) (human, UniProt Q07011 24-186); experiment: SPR T200, antigen-Fc captured, molecule as analyte
T2 construct: also called CD137 Fc chimera; human CD137-Fc chimeric protein
Procedure: as §1

[7] = target: T3, cynomolgus monkey Fc-tagged CD137 (R&D Systems, cat. 9324-4B-100) (cynomolgus monkey, UniProt A9YYE7 24-186); experiment: SPR T200, antigen-Fc captured, molecule as analyte
T3 construct: also called cynomolgus CD137-Fc chimeric protein
Procedure: as §1

[8] = target: T4, mouse Fc-tagged mouse CD137 (R&D Systems, cat. 937-4B-050) (mouse, UniProt P20334 24-187); experiment: SPR T200, antigen-Fc captured, molecule as analyte
T4 construct: also called mouse CD137-Fc chimeric protein
T4 sequence (looked up): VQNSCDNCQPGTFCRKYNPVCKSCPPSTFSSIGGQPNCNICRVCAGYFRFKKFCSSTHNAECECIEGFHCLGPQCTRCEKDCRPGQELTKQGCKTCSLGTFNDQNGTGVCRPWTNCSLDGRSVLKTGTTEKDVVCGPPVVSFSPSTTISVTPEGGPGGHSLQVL
Procedure: as §1

T3 sequence (A9YYE7 entry or part of it): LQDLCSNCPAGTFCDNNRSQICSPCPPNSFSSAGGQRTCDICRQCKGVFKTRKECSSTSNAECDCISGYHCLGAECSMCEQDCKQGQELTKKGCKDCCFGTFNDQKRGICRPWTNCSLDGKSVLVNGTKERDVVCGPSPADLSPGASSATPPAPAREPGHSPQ

B1: PRO1123 (38-02-A04 sc05 IF scDb-i/33_03_G02 sc01 scDb-o) (bispecific antibody)
chain: DIQMTQSPSSLSASVGDRVTITCQASQSINDYLAWYQQKPGKAPKLLIYKASTLASGVPSRFSGSGSGTDFTLTISSLQPEDFATYYCQQGYIITDIDNVFGTGTKVTVLGGGGGSQVQLQESGPGLVKPSETLSLTCKVSGFSFSNSYWICWVRQPPGKGLEWIGCTFVGSSDSTYYANWAKGRVTISVDSSKNQVSLKLSSVTAADTAVYFCARHPSDAVYGYANNLWGQGTLVTVSSGGGGSGGGGSGGGGSGGGGSIQMTQSPSSLSASVGDRVTITCQASQSINNVLAWYQQKPGKPPKLLIYRASTLASGVPSRFSGSGSGTDFTLTISSLQPEDFATYYCQSSYGNYGDFGTGTKVTVLGGGGGSQVQLQESGPGLVKPSETLSLTCKVSGFSFSSGYDMCWIRQPPGKGLEWIGCVVAGSVDITYYASWAKGRVTISVDSSKNQFSLKLSSVTAADTAVYYCARKDAYSDAFNLWGQGTLVTVSS
notes: scDb; also called PR01123
EC50 NFkB-luciferase, CHO-PDL1 cells [1]: 5.75 ng/mL | Top of curve fit, NFkB-luciferase, CHO-PDL1 cells [1]: 219 | EC50 NFkB-luciferase, HCC827 without IFNy [2]: 16.1 ng/mL | Top of curve fit, NFkB-luciferase, HCC827 without IFNy [2]: 123 | EC50 NFkB-luciferase, HCC827 with IFNy [3]: 11.9 ng/mL | Top of curve fit, NFkB-luciferase, HCC827 with IFNy [3]: 154 | max. activation, HCC827 +IFNg [4]: 154% | max. activation, HCC827 -IFNg [4]: 123% | max. activation, NF-kB reporter gene, CHO-PD-L1 [4]: 219% | rel. IC50 (urelumab/test), HCC827 +IFNg [4]: 12.2 ratio | rel. IC50 (urelumab/test), HCC827 -IFNg [4]: 6.82 ratio | rel. IC50 (urelumab/test), NF-kB reporter gene, CHO-PD-L1 [4]: 18.1 ratio | Kd [5]: 0.075 nM | koff [5]: 0.00017 s⁻¹ | kon [5]: 2.3e+06 M⁻¹ s⁻¹ | Kd [6]: 0.88 nM | koff [6]: 0.00027 s⁻¹ | kon [6]: 310000 M⁻¹ s⁻¹ | Kd [7]: 1.3 nM | koff [7]: 0.00033 s⁻¹ | kon [7]: 260000 M⁻¹ s⁻¹ | Kd [8]: 410 nM | koff [8]: 0.027 s⁻¹ | kon [8]: 65000 M⁻¹ s⁻¹

B2: PRO1126 (38-02-A04 sc01 scDb-i/33_03_G02 sc03 Full scDb-o) (bispecific antibody)
chain: DFQLTQSPSSLSASVGDRVTITCQASQSINDYLAWYQQKPGKSPKLLIYKASTLASGVPSRFSGSGSGTDFTLTISSLQPEDFATYYCQQGYIITDIDNVFGTGTKVTVLGGGGGSQVQLQESGPGLVKPSETLSLTCKVSGFSFSNSYWICWIRQPPGKGLEWIGCTFVGSSDSTYYANWAKGRVTISVDSSKNQFSLKLSSVTAADTAVYYCARHPSDAVYGYANNLWGQGTLVTVSSGGGGSGGGGSGGGGSGGGGSIQMTQSPSSLSASVGDRVTITCQASQSINNVLAWYQQKPGKAPKLLIYRASTLASGVPSRFSGSGSGTDFTLTISSLQPEDFATYYCQSSYGNYGDFGTGTKVTVLGGGGGSQSQLQESGPGLVKPSETLSLTCKASGFSFSSGYDMCWVRQPPGKGLEWIACVVAGSVDITYYASWAKGRVTISKDSSKNQVSLKLSSVTAADTAVYFCARKDAYSDAFNLWGQGTLVTVSS
notes: scDb; also called PR01126
EC50 NFkB-luciferase, CHO-PDL1 cells [1]: 6 ng/mL | Top of curve fit, NFkB-luciferase, CHO-PDL1 cells [1]: 242 | EC50 NFkB-luciferase, HCC827 without IFNy [2]: 6.97 ng/mL | Top of curve fit, NFkB-luciferase, HCC827 without IFNy [2]: 135 | EC50 NFkB-luciferase, HCC827 with IFNy [3]: 5.48 ng/mL | Top of curve fit, NFkB-luciferase, HCC827 with IFNy [3]: 208 | max. activation, HCC827 +IFNg [4]: 208% | max. activation, HCC827 -IFNg [4]: 135% | max. activation, NF-kB reporter gene, CHO-PD-L1 [4]: 242% | rel. IC50 (urelumab/test), HCC827 +IFNg [4]: 19.7 ratio | rel. IC50 (urelumab/test), HCC827 -IFNg [4]: 16 ratio | rel. IC50 (urelumab/test), NF-kB reporter gene, CHO-PD-L1 [4]: 14.4 ratio | Kd [5]: ≤ 0.0035 nM | koff [5]: < 1e-05 s⁻¹ | kon [5]: 2.8e+06 M⁻¹ s⁻¹ | Kd [6]: 3.5 nM | koff [6]: 0.00075 s⁻¹ | kon [6]: 210000 M⁻¹ s⁻¹ | binding result [8]: no binding (tested: 0.12-90 nM)

— patent publication US20200332015A1 (NAMAB THERAPEUTICS, published 2020)
